How the values were obtained:
Conditions in all cases: both partners purified
[1] = molecular target: T1, stoichiometric mixture of full-length Drosophila melanogaster H2A-H2B and H3-H4 (octamer-mix) (Drosophila melanogaster, UniProt P84051 1-124; P02283 1-123; P02299 1-136; P84040 1-103); experiment: native MS; octamer-mix and APLF^AD mixed at 1:0.25 to 1:3 octamer equivalent to APLF^AD, exchanged into 300 mM ammonium acetate pH 7.5; Exactive Plus EMR
T1 construct: histone H2A, Drosophila melanogaster, full-length; histone H2B, Drosophila melanogaster, full-length; histone H3, Drosophila melanogaster, full-length; histone H4, Drosophila melanogaster, full-length; At 300 mM NaCl without APLF^AD this is a mixture of H2A-H2B dimers and H3-H4 tetramers, not a preformed octamer; also called stoichiometric core-histone mix; histone octamer; copies: 2 + 2 + 2 + 2

[2] = molecular target: T1, stoichiometric mixture of full-length …; experiment: ITC; 5 μM octamer-mix in the cell titrated with 90 μM APLF^AD in the syringe; 25 mM NaPi pH 7.0, 300 mM NaCl, 25°C; one set of sites model
[3] = molecular target: T2, Drosophila melanogaster histone H3-H4 complex, full-length (Drosophila melanogaster, UniProt P02299 1-136; P84040 1-103); experiment: NMR titration; 20 μM [U-2H/13C/15N]H3-H4 incubated with 0, 10 or 20 μM APLF 459–474 peptide in 25 mM NaPi pH 7.0, 300 mM NaCl, then exchanged to 50 mM acetate pH 5; TROSY at 900 MHz, 308 K
T2 construct: histone H3, Drosophila melanogaster, full-length; histone H4, Drosophila melanogaster, full-length; Eluted as a histone tetramer in SEC; H3 was 2H/13C/15N-labelled for NMR on H3-H4; also called (H3-H4)2; histone tetramer; copies: 2 + 2

Row | binding result [2] | Binder | further results
1 | – | acidic domain of Homo sapiens APLF (APLF^AD, residues 450 to 511), wild type (domain or fragment, acidic domain of human APLF (aprataxin and polynucleotide kinase-like factor), residues 450 to 511; 15N- or 2H/13C/15N-labelled for NMR; Intrinsically disordered; also called APLF^AD WT; WT; source: E. coli BL21 Rosetta2 (DE3), purified (HisTrap, TEV cleavage, anion exchange, second HisTrap)) DEDNDNVGQPNEYDLNDSFLDDEEEDYEPTDEDSDWEPGKEDEEKEDVEELLKEAKRFMKRK | stoichiometry N [1]: 2 APLF^AD per histone octamer equivalent
2 | binds | APLF^AD double anchor mutant Y462A/F468A (DA-34) (domain or fragment, acidic domain of human APLF, residues 450 to 511; source: E. coli BL21 Rosetta2 (DE3), purified) DEDNDNVGQPNEADLNDSALDDEEEDYEPTDEDSDWEPGKEDEEKEDVEELLKEAKRFMKRK | –
3 | binds | SUMO-APLF^AD quadruple anchor mutant Y462A/F468A/Y476A/W485A (QA) (domain or fragment, acidic domain of human APLF, residues 450 to 511; also called APLF^AD QA; source: E. coli BL21 Rosetta2 (DE3), purified; not shown: His tag, N-terminal, cleaved; SUMO, N-terminal, kept) DEDNDNVGQPNEADLNDSALDDEEEDAEPTDEDSDAEPGKEDEEKEDVEELLKEAKRFMKRK | –
4 | binds | LDEDNDNVGQPNEADLNDSALDDEEEDAEPTDEDSDAEPGKE (domain or fragment, human APLF residues 449 to 490; source: E. coli BL21 Rosetta2 (DE3), purified; not shown: His tag, N-terminal, cleaved; SUMO, N-terminal, kept) [SUMO-APLF^AD truncated QA mutant (QA-Δ, residues 449 to 490)] | –
5 | binds | GLDEDNDNVGQPNEYDLNDSFLDDEEEDYEPTDEDSDWEPGKE (domain or fragment, N-terminal Gly as leftover from TEV cleavage site; human APLF residues 449 to 490; Used for crystallisation with tailless Xl. histones and in ITC with the Dm. octamer-mix; source: E. coli BL21 Rosetta2 (DE3), purified) [truncated APLF^AD construct corresponding to residues 449 to 490 (APLF^AD-Δ)] | –
6 | – | Ac-PNEYDLNDSFLDDEEE-NH2 (human APLF residues 459-474; source: synthetic peptide, bought: Biomatik) [peptide corresponding to APLF^459–474] | binding result [3]: binds

Reference: PMC9328677 (Science Advances, 2021)
